Biological target: Lhr (archaeal Lhr, Mth1802) (Methanothermobacter thermautotrophicus …, UniProt O27830 1-862)
Assay: EMSA; no ATP; 100 nM Lhr, 10 nM DNA; EMSA: buffer HB (20 mM Tris-HCl pH 7.5, 2 mM DTT, 100 µg/ml BSA, 7% glycerol), room temperature, 10 nM DNA, 100 nM Lhr, +/- ATP and MgCl2, 5% acrylamide TBE gel; smFRET: 1 µM Lhr, RT or 45°C
Settings: protein: recombinant; tags: none stated (pET22b via NdeI/EcoRI, pEB352; no tag purification); label: ATTO 532 (green); partial fork 1:3 parental 24 bp, 3:4 leading arm 25 bp; S18[1-26] single-stranded; 1 nt 5' overhang on S20

Lhr (archaeal Lhr, Mth1802), sequence (O27830 whole entry): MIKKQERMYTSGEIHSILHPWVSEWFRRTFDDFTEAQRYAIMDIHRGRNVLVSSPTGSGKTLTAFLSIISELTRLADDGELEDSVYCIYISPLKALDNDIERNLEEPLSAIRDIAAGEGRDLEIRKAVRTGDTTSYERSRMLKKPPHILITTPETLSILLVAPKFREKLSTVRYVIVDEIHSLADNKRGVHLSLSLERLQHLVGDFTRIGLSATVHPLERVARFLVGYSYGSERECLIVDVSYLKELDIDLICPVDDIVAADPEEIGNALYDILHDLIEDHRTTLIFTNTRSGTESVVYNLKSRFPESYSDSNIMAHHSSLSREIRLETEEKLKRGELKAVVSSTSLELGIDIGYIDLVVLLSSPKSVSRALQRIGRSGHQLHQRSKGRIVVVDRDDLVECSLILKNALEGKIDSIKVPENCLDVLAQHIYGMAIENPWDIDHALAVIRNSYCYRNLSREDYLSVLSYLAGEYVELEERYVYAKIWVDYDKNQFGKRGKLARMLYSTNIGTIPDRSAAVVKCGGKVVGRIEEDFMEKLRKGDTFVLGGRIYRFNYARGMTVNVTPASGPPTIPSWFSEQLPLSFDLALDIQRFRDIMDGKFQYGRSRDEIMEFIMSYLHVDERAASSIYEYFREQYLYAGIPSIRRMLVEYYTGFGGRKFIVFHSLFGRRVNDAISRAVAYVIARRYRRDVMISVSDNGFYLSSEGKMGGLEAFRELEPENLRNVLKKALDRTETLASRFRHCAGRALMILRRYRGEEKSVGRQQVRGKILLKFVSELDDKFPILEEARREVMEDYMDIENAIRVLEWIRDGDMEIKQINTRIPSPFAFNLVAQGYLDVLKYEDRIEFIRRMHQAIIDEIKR

B1: partial fork-2 lacking the red lagging strand (dsDNA)
DNA 1: ATCGATAGTCTCTAGACAGTATGTCCTAGCAAGCCAGAATTCGGCAGCGT
DNA 2: GACGCTGCCGAATTCTGGCTTGCTATGTAAATCTTTGCCCACGTTGACCC
DNA 3: GGGTCAACGTGGGCAAAGATTTACA
modifications: 5' biotin on S18
  binding result: binds
